Measurements as given in US20160177336A1 (EIDGENOESSISCHE TECHNISCHE HOCHSCHULE ZURICH, published 2016).

Molecular target: T1, Itc1p (yeast, UniProt P53125 1-1264)
T1 construct: Co-expressed with Isw2p in insect cells from MultiBac baculovirus; also called 145 kDa Itc1p; subunit of the yeast Isw2 chromatin remodelling complex
T1 sequence (looked up): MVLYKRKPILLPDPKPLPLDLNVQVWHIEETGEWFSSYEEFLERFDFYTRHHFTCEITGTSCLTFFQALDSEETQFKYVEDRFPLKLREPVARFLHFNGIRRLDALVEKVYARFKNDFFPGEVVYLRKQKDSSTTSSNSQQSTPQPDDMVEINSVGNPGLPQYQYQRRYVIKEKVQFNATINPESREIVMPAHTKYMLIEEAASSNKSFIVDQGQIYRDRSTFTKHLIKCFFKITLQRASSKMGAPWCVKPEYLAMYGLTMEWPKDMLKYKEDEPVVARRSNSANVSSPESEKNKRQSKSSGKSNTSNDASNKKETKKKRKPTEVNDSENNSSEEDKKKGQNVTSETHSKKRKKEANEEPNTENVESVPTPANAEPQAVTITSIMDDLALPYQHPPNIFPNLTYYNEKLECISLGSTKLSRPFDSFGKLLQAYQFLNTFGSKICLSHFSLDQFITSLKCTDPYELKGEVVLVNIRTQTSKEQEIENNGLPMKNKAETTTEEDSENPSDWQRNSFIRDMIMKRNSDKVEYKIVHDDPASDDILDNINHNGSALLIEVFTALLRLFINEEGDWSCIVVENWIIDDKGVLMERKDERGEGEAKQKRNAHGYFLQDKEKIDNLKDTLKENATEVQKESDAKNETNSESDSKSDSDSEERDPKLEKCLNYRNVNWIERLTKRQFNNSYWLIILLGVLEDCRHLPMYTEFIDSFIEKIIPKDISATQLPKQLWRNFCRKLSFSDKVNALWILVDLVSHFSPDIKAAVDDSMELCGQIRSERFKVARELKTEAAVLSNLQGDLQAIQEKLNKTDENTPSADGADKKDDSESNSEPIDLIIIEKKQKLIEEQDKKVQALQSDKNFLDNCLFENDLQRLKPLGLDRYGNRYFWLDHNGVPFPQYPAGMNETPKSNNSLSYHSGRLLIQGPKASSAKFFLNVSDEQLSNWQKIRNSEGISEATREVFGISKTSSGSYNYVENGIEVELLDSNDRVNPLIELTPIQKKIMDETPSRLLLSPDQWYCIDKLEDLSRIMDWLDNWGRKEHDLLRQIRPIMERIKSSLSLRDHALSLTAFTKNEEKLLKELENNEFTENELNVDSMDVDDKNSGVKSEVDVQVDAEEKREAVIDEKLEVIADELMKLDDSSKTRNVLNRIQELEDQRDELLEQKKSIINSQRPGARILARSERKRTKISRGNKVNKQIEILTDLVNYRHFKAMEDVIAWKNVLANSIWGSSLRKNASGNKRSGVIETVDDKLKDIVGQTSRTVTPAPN
Assay: co-expression in insect cells from MultiBac baculovirus; complex purified (FIG. 8)
From the text: In a test experiment the yeast Isw2 chromatin remodelling complex consisting of the 130 kDa Isw2p and the 145 kDa Itc1p proteins was expressed. One version of MultiBac was created with both proteins integrated at the attTn7 site, and a second version with Isw2p integrated at the attTn7 site and Itc1p inserted at the LoxP site. […] For further detail see FIG. 8.

B1: Isw2p (other, yeast, UniProt Q08773 1-1120, looked up)
chain: MTTQQEEQRSDTKNSKSESPSEVLVDTLDSKSNGSSDDDNIGQSEELSDKEIYTVEDRPPEYWAQRKKKFVLDVDPKYAKQKDKSDTYKRFKYLLGVTDLFRHFIGIKAKHDKNIQKLLKQLDSDANKLSKSHSTVSSSSRHHRKTEKEEDAELMADEEEEIVDTYQEDIFVSESPSFVKSGKLRDYQVQGLNWLISLHENKLSGILADEMGLGKTLQTISFLGYLRYVKQIEGPFLIIVPKSTLDNWRREFLKWTPNVNVLVLHGDKDTRADIVRNIILEARFDVLITSYEMVIREKNALKRLAWQYIVIDEAHRIKNEQSALSQIIRLFYSKNRLLITGTPLQNNLHELWALLNFLLPDIFGDSELFDEWFEQNNSEQDQEIVIQQLHSVLNPFLLRRVKADVEKSLLPKIETNVYVGMTDMQIQWYKSLLEKDIDAVNGAVGKREGKTRLLNIVMQLRKCCNHPYLFEGAEPGPPYTTDEHLIFNSGKMIILDKLLKRLKEKGSRVLIFSQMSRLLDILEDYCYFRDFEYCRIDGSTSHEERIEAIDEYNKPNSEKFVFLLTTRAGGLGINLVTADTVILFDSDWNPQADLQAMDRAHRIGQKKQVHVYRFVTENAIEEKVIERAAQKLRLDQLVIQQGTGKKTASLGNSKDDLLDMIQFGAKNMFEKKASKVTVDADIDDILKKGEQKTQELNAKYQSLGLDDLQKFNGIENQSAYEWNGKSFQKKSNDKVVEWINPSRRERRREQTTYSVDDYYKEIIGGGSKSASKQTPQPKAPRAPKVIHGQDFQFFPKELDALQEKEQLYFKKKVNYKVTSYDITGDIRNEGSDAEEEEGEYKNAANTEGHKGHEELKRRIEEEQEKINSAPDFTQEDELRKQELISKAFTNWNKRDFMAFINACAKYGRDDMENIKKSIDSKTPEEVEVYAKIFWERLKEINGWEKYLHNVELGEKKNEKLKFQETLLRQKIEQCKHPLHELIIQYPPNNARRTYNTLEDKFLLLAVNKYGLRADKLYEKLKQEIMMSDLFTFDWFIKTRTVHELSKRVHTLLTLIVREYEQPDANKKKRSRTSATREDTPLSQNESTRASTVPNLPTTMVTNQKDTNDHVDKRTKIDQEA
notes: Co-expressed with Itc1p in insect cells from MultiBac baculovirus; also called 130 kDa Isw2p; subunit of the yeast Isw2 chromatin remodelling complex
B1: binds.
